The values that follow come from patent US7138236B1, “Interactions of ATM, ATR or DAN-PK with p53” (Kudos Pharmaceuticals Limited, priority 1997, dated 2006).

Square brackets hold non-standard residues; d marks the D form. pT = C[C@@H](OP(=O)(O)O)[C@H](N)C(=O)O

Mdm-2, sequence (Q00987 whole entry, species assumed, the tested form may be a part): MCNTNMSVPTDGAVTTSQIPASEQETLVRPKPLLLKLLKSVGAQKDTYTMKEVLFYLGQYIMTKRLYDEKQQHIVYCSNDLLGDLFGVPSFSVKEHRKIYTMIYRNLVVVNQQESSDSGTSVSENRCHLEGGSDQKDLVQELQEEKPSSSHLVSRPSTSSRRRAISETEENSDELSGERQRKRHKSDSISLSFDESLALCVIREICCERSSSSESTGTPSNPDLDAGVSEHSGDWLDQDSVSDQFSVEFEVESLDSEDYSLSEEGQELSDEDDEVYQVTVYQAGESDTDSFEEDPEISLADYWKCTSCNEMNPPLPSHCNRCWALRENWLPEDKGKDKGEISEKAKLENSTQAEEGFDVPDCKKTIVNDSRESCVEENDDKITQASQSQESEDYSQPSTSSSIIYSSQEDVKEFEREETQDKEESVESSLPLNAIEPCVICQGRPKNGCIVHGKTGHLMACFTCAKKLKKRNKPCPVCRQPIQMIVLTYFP

This experiment addresses Mdm-2 (Homo sapiens, UniProt Q00987). As to the kind of experiment: Mdm-2 binding of p53-derived peptides by ELISA analysis. Particulars: peptides containing p53 residues 11 to 25, unphosphorylated or phosphorylated on Ser15 and/or Thr18. The method, then: To test whether phosphorylation on Ser15 or Thr18 of p53 affects its interaction with Mdm-2, phosphorylated and unphosphorylated p53-derived peptides were generated and were assessed for Mdm-2 binding by ELISA analysis. The four peptides used contained p53 residues 11 to 25 (in the sequence (SEQ ID NO:11) NH2-SGSGEPPLSOETFSDLWKL-COOH; where the underlined sequence is that derived from p53) that were unphosphorylated (1); phosphorylated on residue equivalent to p53 residue Ser15(2); phosphorylated on residue equivalent to p53 residue Thr18(3); or phosphorylated on two residues, equivalent to p53 residue Ser15 and Thr18(4). […] We therefore conclude that phosphorylation on Thr18 of p53 has a dramatic effect on its interaction with […] and that phosphorylation of this site is likely to play a key role in regulating p53 responses in vivo.
With “NH2-SGSGEPPLSOETFSDLWKL-COOH [3] (H-SGSGEPPLSQE[pT]FSDLWKL-OH; SMILES CC(C)C[C@H](NC(=O)[C@H](CCCCN)NC(=O)[C@H](Cc1c[nH]c2ccccc12)NC(=O)[C@H](CC(C)C)NC(=O)[C@H](CC(=O)O)NC(=O)[C@H](CO)NC(=O)[C@H](Cc1ccccc1)NC(=O)[C@@H](NC(=O)[C@H](CCC(=O)O)NC(=O)[C@H](CCC(N)=O)NC(=O)[C@H](CO)NC(=O)[C@H](CC(C)C)NC(=O)[C@@H]1CCCN1C(=O)[C@@H]1CCCN1C(=O)[C@H](CCC(=O)O)NC(=O)CNC(=O)[C@H](CO)NC(=O)CNC(=O)[C@@H](N)CO)[C@@H](C)OP(=O)(O)O)C(=O)O; UniProt P04637 11-25, looked up, fragment) [compound 3, peptide containing p53 residues 11 to 25, phosphorylated on residue equivalent to Thr18]”, the “Mdm-2 binding of p53-derived peptides” value is on record as “inhibited dramatically”.
Consider “NH2-SGSGEPPLSOETFSDLWKL-COOH [compound 4]”, for which the “Mdm-2 binding of p53-derived peptides” value is “inhibited dramatically”.
Consider “NH2-SGSGEPPLSOETFSDLWKL-COOH [peptide 2] (EPPLSQETFSDLWKL; phospho-Ser15; N-terminal SGSG linker; UniProt P04637 11-25, looked up, fragment) [peptide containing p53 residues 11 to 25, phosphorylated on residue equivalent to Ser15]”, for which the “Mdm-2 binding of p53-derived peptides” value is on record as “only impaired slightly”.
With “NH2-SGSGEPPLSOETFSDLWKL-COOH [peptide 1] (H-SGSGEPPLSQETFSDLWKL-OH; UniProt P04637 11-25, looked up, fragment) [peptide containing p53 residues 11 to 25, unphosphorylated]”, the “Mdm-2 binding of p53-derived peptides” value is “occurred effectively”.
